One substance from PMC3613427 can be followed below.

In assay [1] the target is formate channel FocA from Vibrio cholerae (Vibrio cholerae). Kind of assay: SEC-MALS.
Assay [2] shares this target. In words: crystal structure.

Consider “formate channel FocA from Vibrio cholerae (natural protein)”, for which the stoichiometry N in assay [1] and in assay [2] was 5 throughout.

The stoichiometry N is a count of units in the complex or per binding partner.
